Results on 2 molecules are retold here after patent US20100317830A1, “BACE455, AN ALTERNATIVE SPLICE VARIANT OF THE HUMAN BETA-SECRETASE” (EXONHIT THERAPEUTICS SA, priority 2003, published 2010).

For assay [1], the system named is endogenously expressed APP isoforms in SH-SY5Y cells. The assay is described as follows: Western blot of C99 fragment generation in transfected SH-SY5Y cells. The assay is classed as cell-based, human. How it is done:
SH-SY5Y cells for transfection were grown to 80% confluence in Dulbecco's modified Eagle's medium (DMEM) with 10% fetal bovine serum. Transfections were performed using LipofectAmine Plus (Gibco-BRL) with […] per 10*10<6>cells. Three days posttransfection, cells were passaged into medium containing G418 at a concentration of 400 μg/ml. After twenty days growth in selective medium, individual clones were selected and plated into each well of one 96 well plate containing growth medium plus G418. Clones were expanded from the 96 well plate to a 24 well plate and then to a 6 well plate. Clones which had lost initial neuronal-like morphology were not amplified. BACE455 or BACE501 expression in selected clones was assayed by Western Blotting and immunohistochemical analysis using Cterminal-specific antibody.
Cells were harvested 3 days after plating. Cells were washed twice with PBS and lysed in 1 ml CellLytic solution (Sigma) plus protease inhibitors cocktail (Roche Diagnostics) for 15 min. […] Following electrotransfer of the separated polypeptides to PVDF membranes, APP and C99 proteolytic fragment were detected with C-terminal-specific rabbit anti-APP antibody (Serotec, UK) at 1/500 in PBS-Tween 20 0.1%, and the antibody-antigen complexes were visualized using alkaline phosphatase conjugated goat anti-rabbit antibodies (1/5000). […]

Assay [2] deals with endogenously expressed APP in SH-SY5Y cells. The assay is described as follows: Aβ1-40 double antibody sandwich ELISA on conditioned medium of transfected SH-SY5Y cells. Format: cell-based, human. The settings on record: SH-SY5Y cells transfected with BACE construct; control = empty vector, set as 100%. How it is done:
Cells were harvested 3 days after plating and processed for Western Blotting experiments as described above.
Cell culture supernatants harvested 72 hours after plating were analyzed in a standard double antibody isoform-specific Aβ1-40 ELISA (BioSource International) as follows. […] The detecting antibody is specific for Abeta 1-40 and the conjugated secondary antibody is an anti-rabbit IgG conjugated to horseradish peroxydase. Synthetic human Aβ1-40 standard peptides are serially diluted in the supplied sample diluent for the generation of standard curves.
Human Abeta 1-40 standards were added after washing the plate, as well as 100 μl/well of sample, e.g., conditioned medium of transfected cells. The plate was incubated at 4[deg.] C. overnight. The next day, after washing the plate four times, 100 μl/well rabbit detection antibody was added and incubated for 2 hours on an orbital plate shaker at 20 degree C. […] 100 μl/well stop solution was added and absorbance of each well was read at 450 nm within two hours, with a solution of 100 μl each of chromogen and stop solution as the blank. […] The samples with absorbance values falling within the standard curve were extrapolated (by comparison to the values obtained for the A-β40 and A-β42 standard peptides analyzed on the same plate) from the standard curves and expressed in pg/ml culture medium.
In general terms: An ELISA detects its analyte on a solid surface through an enzyme-linked reagent.

B1: BACE455: new isoform of human beta-secretase (BACE) lacking exon 4, 455 amino acid residues, SEQ ID NO: 2 (protein, listed as Homo sapiens)
chain: MAQALPWLLLWMGAGVLPAHGTQHGIRLPLRSGLGGAPLGLRLPRETDEEPEEPGRRGSFVEMVDNLRGKSGQGYYVEMTVGSPPQTLNILVDTGSSNFAVGAAPHPFLHRYYQRQLSSTYRDLRKGVYVPYTQGKWEGELGTDLVSIPHGPNVTVRANIAAITESDKFFINGSNWEGILGLAYAEIARIIGGIDHSLYTGSLWYTPIRREWYYEVIIVRVEINGQDLKMDCKEYNYDKSIVDSGTTNLRLPKKVFEAAVKSIKAASSTEKFPDGFWLGEQLVCWQAGTTPWNIFPVISLYLMGEVTNQSFRITILPQQYLRPVEDVATSQDDCYKFAISQSSTGTVMGAVIMEGFYVVFDRARKRIGFAVSACHVHDEFRTAAVEGPFVTLDMEDCGYNIPQTDESTLMTIAYVMAAICALFMLPLCLMVCQWRCLRCLRQQHDDFADDISLLK
For B1, the C99 production entry in assay [1] (SH-SY5Y cells transformed with the BACE455 construct vs empty vector) is given as “strongly increased”. The APP levels result in assay [1] (overexpression of BACE455 in SH-SY5Y cells) is “no influence”. Moreover, the “Aβ release (% of control)” value in assay [2] is given as 199.95+18 % of control.

B2: BACE501: native full-length human BACE isoform (variant a), NM_012104 (protein, UniProt P56817 1-501, looked up)
chain: MAQALPWLLLWMGAGVLPAHGTQHGIRLPLRSGLGGAPLGLRLPRETDEEPEEPGRRGSFVEMVDNLRGKSGQGYYVEMTVGSPPQTLNILVDTGSSNFAVGAAPHPFLHRYYQRQLSSTYRDLRKGVYVPYTQGKWEGELGTDLVSIPHGPNVTVRANIAAITESDKFFINGSNWEGILGLAYAEIARPDDSLEPFFDSLVKQTHVPNLFSLQLCGAGFPLNQSEVLASVGGSMIIGGIDHSLYTGSLWYTPIRREWYYEVIIVRVEINGQDLKMDCKEYNYDKSIVDSGTTNLRLPKKVFEAAVKSIKAASSTEKFPDGFWLGEQLVCWQAGTTPWNIFPVISLYLMGEVTNQSFRITILPQQYLRPVEDVATSQDDCYKFAISQSSTGTVMGAVIMEGFYVVFDRARKRIGFAVSACHVHDEFRTAAVEGPFVTLDMEDCGYNIPQTDESTLMTIAYVMAAICALFMLPLCLMVCQWRCLRCLRQQHDDFADDISLLK
modifications: full-length
notes: native full-length human BACE isoform (variant a), NM_012104
As to B2, the “Aβ release (% of control)” value in assay [2] is on record as 193.15 ± 2.73 % of control.
